The values below come from PMC2120665.

The experiment has as its target anti-SKL-reactive polypeptides. Description: co-IP.

B1: Pay32p (natural protein)
chain: MSFMRGGSECSTGRNPLSQFTKHTAEDRSLQHDRVAGPSGGRVGGMRSNTGEMSQQDREMMARFGAAGPEQSSFNYEQMRHELHNMGAQGGQIPQVPSQQGAANGGQWARDFGGQQTAPGAAPQDAKNWNAEFQRGGSPAEAMQQQGPGPMQGGMGMGGMPMYGMARPMYSGMSANMAPQFQPQQANARVVELDEQNWEEQFKQMDSAVGKGKEVEEQTAETATATETVTETETTTEDKPMDIKNMDFENIWKNLQVNVLDNMDEWLEETNSPAWERDFHEYTHNRPEFADYQFEENNQFMEHPDPFKIGVELMETGGRLSEAALAFEAAVQKNTEHAEAWGRLGACQAQNEKEDPAIRALERCIKLEPGNLSALMNLSVSYTNEGYENAAYATLERWLATKYPEVVDQARNQEPRLGNEDKFQLHSRVTELFIRAAQLSPDGANIDADVQVGLGVLFYGNEEYDKAIDCFNAAIAVRPDDALLWNRLGATLANSHRSEEAIDAYYKALELRPSFVRARYNLGVSCINIGCYKEAAQYLLGALSMHKVEGVQDDVLANQSTNLYDTLKRVFLGMDRRDLVAKVGNGMDVNQFRNEFEF
B1 showed a percent of Pay32p present in the complex of 84.6%.
